Results reported in patent US20140087995A1 (published 2014).
Numbered stars: 1 amine (or outer) side, 2 acyl side, 3 side chain; on linkers, the order of the positions; unused ones are H or OH. Bridge positions count the residues as written; N and C are the ends. Side chains are listed from the residue outwards. Ends that are not written are not given here. * marks the point of attachment. C20 diacid = O=C(O)CCCCCCCCCCCCCCCCCCC(=O)*; γGlu = O=C(O)[C@H](CCC(=O)[*:2])N[*:1]; AEEA = NCCOCCOCC(=O)O

T1: human calcitonin receptor (human, UniProt P30988 25-474)
T1 sequence (looked up): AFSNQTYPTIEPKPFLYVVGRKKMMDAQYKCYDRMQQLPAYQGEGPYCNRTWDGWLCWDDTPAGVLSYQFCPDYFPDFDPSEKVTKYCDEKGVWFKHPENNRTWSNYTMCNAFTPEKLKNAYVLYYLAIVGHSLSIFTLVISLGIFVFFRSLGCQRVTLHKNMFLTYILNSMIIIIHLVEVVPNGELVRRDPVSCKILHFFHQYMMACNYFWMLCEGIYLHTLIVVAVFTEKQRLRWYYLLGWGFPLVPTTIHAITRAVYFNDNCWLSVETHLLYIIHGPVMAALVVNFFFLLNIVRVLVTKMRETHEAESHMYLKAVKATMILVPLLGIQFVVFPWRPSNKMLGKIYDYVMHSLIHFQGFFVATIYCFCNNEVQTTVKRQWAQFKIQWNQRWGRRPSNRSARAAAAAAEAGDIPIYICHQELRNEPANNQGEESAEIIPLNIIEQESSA


Target: T1, human calcitonin receptor
Test: cell-based or functional assay

hCTR funct. EC50	Binder
1.63 nM	K([AEEA-AEEA-γGlu-C20 diacid])CNTATCATQRLANFLRHSSPNFGAIPSSTNVGPNTY-NH2 (disulfide 2-7; N-terminus assumed; SMILES CC[C@H](C)[C@H](NC(=O)[C@H](C)NC(=O)CNC(=O)[C@H](Cc1ccccc1)NC(=O)[C@H](CC(N)=O)NC(=O)[C@@H]1CCCN1C(=O)[C@H](CO)NC(=O)[C@H](CO)NC(=O)[C@H](Cc1c[nH]cn1)NC(=O)[C@H](CCCNC(=N)N)NC(=O)[C@H](CC(C)C)NC(=O)[C@H](Cc1ccccc1)NC(=O)[C@H](CC(N)=O)NC(=O)[C@H](C)NC(=O)[C@H](CC(C)C)NC(=O)[C@H](CCCNC(=N)N)NC(=O)[C@H](CCC(N)=O)NC(=O)[C@@H](NC(=O)[C@H](C)NC(=O)[C@@H]1CSSC[C@H](NC(=O)[C@@H](N)CCCCNC(=O)COCCOCCNC(=O)COCCOCCNC(=O)CC[C@H](NC(=O)CCCCCCCCCCCCCCCCCCC(=O)O)C(=O)O)C(=O)N[C@@H](CC(N)=O)C(=O)N[C@@H]([C@@H](C)O)C(=O)N[C@@H](C)C(=O)N[C@@H]([C@@H](C)O)C(=O)N1)[C@@H](C)O)C(=O)N1CCC[C@H]1C(=O)N[C@@H](CO)C(=O)N[C@@H](CO)C(=O)N[C@H](C(=O)N[C@@H](CC(N)=O)C(=O)N[C@H](C(=O)NCC(=O)N1CCC[C@H]1C(=O)N[C@@H](CC(N)=O)C(=O)N[C@H](C(=O)N[C@@H](Cc1ccc(O)cc1)C(N)=O)[C@@H](C)O)C(C)C)[C@@H](C)O, also called compound 98)
4.76 nM	K([AEEA-γGlu-C20 diacid])CNTATCATQRLAAFLRHSSPNFGAIPSSTPVGSNTY-NH2 (disulfide 2-7; N-terminus assumed; SMILES CC[C@H](C)[C@H](NC(=O)[C@H](C)NC(=O)CNC(=O)[C@H](Cc1ccccc1)NC(=O)[C@H](CC(N)=O)NC(=O)[C@@H]1CCCN1C(=O)[C@H](CO)NC(=O)[C@H](CO)NC(=O)[C@H](Cc1c[nH]cn1)NC(=O)[C@H](CCCNC(=N)N)NC(=O)[C@H](CC(C)C)NC(=O)[C@H](Cc1ccccc1)NC(=O)[C@H](C)NC(=O)[C@H](C)NC(=O)[C@H](CC(C)C)NC(=O)[C@H](CCCNC(=N)N)NC(=O)[C@H](CCC(N)=O)NC(=O)[C@@H](NC(=O)[C@H](C)NC(=O)[C@@H]1CSSC[C@H](NC(=O)[C@@H](N)CCCCNC(=O)COCCOCCNC(=O)CC[C@H](NC(=O)CCCCCCCCCCCCCCCCCCC(=O)O)C(=O)O)C(=O)N[C@@H](CC(N)=O)C(=O)N[C@@H]([C@@H](C)O)C(=O)N[C@@H](C)C(=O)N[C@@H]([C@@H](C)O)C(=O)N1)[C@@H](C)O)C(=O)N1CCC[C@H]1C(=O)N[C@@H](CO)C(=O)N[C@@H](CO)C(=O)N[C@H](C(=O)N1CCC[C@H]1C(=O)N[C@H](C(=O)NCC(=O)N[C@@H](CO)C(=O)N[C@@H](CC(N)=O)C(=O)N[C@H](C(=O)N[C@@H](Cc1ccc(O)cc1)C(N)=O)[C@@H](C)O)C(C)C)[C@@H](C)O, also called compound 72)

The next lines start with the binder.

Binder	hCTR funct. EC50
K([AEEA-C20 diacid])CNTATCATQRLANFLRHSSPNFGAIPSSTNVGHNTY-NH2 (disulfide 2-7; N-terminus assumed; SMILES CC[C@H](C)[C@H](NC(=O)[C@H](C)NC(=O)CNC(=O)[C@H](Cc1ccccc1)NC(=O)[C@H](CC(N)=O)NC(=O)[C@@H]1CCCN1C(=O)[C@H](CO)NC(=O)[C@H](CO)NC(=O)[C@H](Cc1c[nH]cn1)NC(=O)[C@H](CCCNC(=N)N)NC(=O)[C@H](CC(C)C)NC(=O)[C@H](Cc1ccccc1)NC(=O)[C@H](CC(N)=O)NC(=O)[C@H](C)NC(=O)[C@H](CC(C)C)NC(=O)[C@H](CCCNC(=N)N)NC(=O)[C@H](CCC(N)=O)NC(=O)[C@@H](NC(=O)[C@H](C)NC(=O)[C@@H]1CSSC[C@H](NC(=O)[C@@H](N)CCCCNC(=O)COCCOCCNC(=O)CCCCCCCCCCCCCCCCCCC(=O)O)C(=O)N[C@@H](CC(N)=O)C(=O)N[C@@H]([C@@H](C)O)C(=O)N[C@@H](C)C(=O)N[C@@H]([C@@H](C)O)C(=O)N1)[C@@H](C)O)C(=O)N1CCC[C@H]1C(=O)N[C@@H](CO)C(=O)N[C@@H](CO)C(=O)N[C@H](C(=O)N[C@@H](CC(N)=O)C(=O)N[C@H](C(=O)NCC(=O)N[C@@H](Cc1c[nH]cn1)C(=O)N[C@@H](CC(N)=O)C(=O)N[C@H](C(=O)N[C@@H](Cc1ccc(O)cc1)C(N)=O)[C@@H](C)O)C(C)C)[C@@H](C)O, also called compound 91) [N^ε1-[2-[2-[2-(19-carboxynonadecanoylamino)ethoxy]ethoxy]acetyl]-[Arg17,Pro21,Pro27,His34]-h-amylin]	1.48 nM
K([AEEA-AEEA-γGlu-C20 diacid])CNTATCATQRLANFLRHSSPNFGAIPSSTNVGRNTY-NH2 (disulfide 2-7; N-terminus assumed; SMILES CC[C@H](C)[C@H](NC(=O)[C@H](C)NC(=O)CNC(=O)[C@H](Cc1ccccc1)NC(=O)[C@H](CC(N)=O)NC(=O)[C@@H]1CCCN1C(=O)[C@H](CO)NC(=O)[C@H](CO)NC(=O)[C@H](Cc1c[nH]cn1)NC(=O)[C@H](CCCNC(=N)N)NC(=O)[C@H](CC(C)C)NC(=O)[C@H](Cc1ccccc1)NC(=O)[C@H](CC(N)=O)NC(=O)[C@H](C)NC(=O)[C@H](CC(C)C)NC(=O)[C@H](CCCNC(=N)N)NC(=O)[C@H](CCC(N)=O)NC(=O)[C@@H](NC(=O)[C@H](C)NC(=O)[C@@H]1CSSC[C@H](NC(=O)[C@@H](N)CCCCNC(=O)COCCOCCNC(=O)COCCOCCNC(=O)CC[C@H](NC(=O)CCCCCCCCCCCCCCCCCCC(=O)O)C(=O)O)C(=O)N[C@@H](CC(N)=O)C(=O)N[C@@H]([C@@H](C)O)C(=O)N[C@@H](C)C(=O)N[C@@H]([C@@H](C)O)C(=O)N1)[C@@H](C)O)C(=O)N1CCC[C@H]1C(=O)N[C@@H](CO)C(=O)N[C@@H](CO)C(=O)N[C@H](C(=O)N[C@@H](CC(N)=O)C(=O)N[C@H](C(=O)NCC(=O)N[C@@H](CCCNC(=N)N)C(=O)N[C@@H](CC(N)=O)C(=O)N[C@H](C(=O)N[C@@H](Cc1ccc(O)cc1)C(N)=O)[C@@H](C)O)C(C)C)[C@@H](C)O, also called compound 95)	21.5 nM
K([AEEA-AEEA-γGlu-C20 diacid])CNTATCATQRLANFLRHSSPNFGAIPSSTPVGSNTY-NH2 (disulfide 2-7; N-terminus assumed; SMILES CC[C@H](C)[C@H](NC(=O)[C@H](C)NC(=O)CNC(=O)[C@H](Cc1ccccc1)NC(=O)[C@H](CC(N)=O)NC(=O)[C@@H]1CCCN1C(=O)[C@H](CO)NC(=O)[C@H](CO)NC(=O)[C@H](Cc1c[nH]cn1)NC(=O)[C@H](CCCNC(=N)N)NC(=O)[C@H](CC(C)C)NC(=O)[C@H](Cc1ccccc1)NC(=O)[C@H](CC(N)=O)NC(=O)[C@H](C)NC(=O)[C@H](CC(C)C)NC(=O)[C@H](CCCNC(=N)N)NC(=O)[C@H](CCC(N)=O)NC(=O)[C@@H](NC(=O)[C@H](C)NC(=O)[C@@H]1CSSC[C@H](NC(=O)[C@@H](N)CCCCNC(=O)COCCOCCNC(=O)COCCOCCNC(=O)CC[C@H](NC(=O)CCCCCCCCCCCCCCCCCCC(=O)O)C(=O)O)C(=O)N[C@@H](CC(N)=O)C(=O)N[C@@H]([C@@H](C)O)C(=O)N[C@@H](C)C(=O)N[C@@H]([C@@H](C)O)C(=O)N1)[C@@H](C)O)C(=O)N1CCC[C@H]1C(=O)N[C@@H](CO)C(=O)N[C@@H](CO)C(=O)N[C@H](C(=O)N1CCC[C@H]1C(=O)N[C@H](C(=O)NCC(=O)N[C@@H](CO)C(=O)N[C@@H](CC(N)=O)C(=O)N[C@H](C(=O)N[C@@H](Cc1ccc(O)cc1)C(N)=O)[C@@H](C)O)C(C)C)[C@@H](C)O, also called compound 96)	3.8 nM
K([AEEA-AEEA-γGlu-C20 diacid])CNTATCATQRLANFLRHSSPNFGAIPSSTNVGHNTY-NH2 (disulfide 2-7; N-terminus assumed; SMILES CC[C@H](C)[C@H](NC(=O)[C@H](C)NC(=O)CNC(=O)[C@H](Cc1ccccc1)NC(=O)[C@H](CC(N)=O)NC(=O)[C@@H]1CCCN1C(=O)[C@H](CO)NC(=O)[C@H](CO)NC(=O)[C@H](Cc1c[nH]cn1)NC(=O)[C@H](CCCNC(=N)N)NC(=O)[C@H](CC(C)C)NC(=O)[C@H](Cc1ccccc1)NC(=O)[C@H](CC(N)=O)NC(=O)[C@H](C)NC(=O)[C@H](CC(C)C)NC(=O)[C@H](CCCNC(=N)N)NC(=O)[C@H](CCC(N)=O)NC(=O)[C@@H](NC(=O)[C@H](C)NC(=O)[C@@H]1CSSC[C@H](NC(=O)[C@@H](N)CCCCNC(=O)COCCOCCNC(=O)COCCOCCNC(=O)CC[C@H](NC(=O)CCCCCCCCCCCCCCCCCCC(=O)O)C(=O)O)C(=O)N[C@@H](CC(N)=O)C(=O)N[C@@H]([C@@H](C)O)C(=O)N[C@@H](C)C(=O)N[C@@H]([C@@H](C)O)C(=O)N1)[C@@H](C)O)C(=O)N1CCC[C@H]1C(=O)N[C@@H](CO)C(=O)N[C@@H](CO)C(=O)N[C@H](C(=O)N[C@@H](CC(N)=O)C(=O)N[C@H](C(=O)NCC(=O)N[C@@H](Cc1c[nH]cn1)C(=O)N[C@@H](CC(N)=O)C(=O)N[C@H](C(=O)N[C@@H](Cc1ccc(O)cc1)C(N)=O)[C@@H](C)O)C(C)C)[C@@H](C)O, also called compound 97)	11.8 nM
